Test results published in paper PMC5614552 (Biochemistry and Biophysics Reports, 2016).

Target: human CD34 protein (Fc tag; Sino Biological Incorporation) (Homo sapiens, UniProt P28906)
Assay: SPR

Sequence of human CD34 protein (Fc tag; Sino Biological Incorporation) (P28906 32-290): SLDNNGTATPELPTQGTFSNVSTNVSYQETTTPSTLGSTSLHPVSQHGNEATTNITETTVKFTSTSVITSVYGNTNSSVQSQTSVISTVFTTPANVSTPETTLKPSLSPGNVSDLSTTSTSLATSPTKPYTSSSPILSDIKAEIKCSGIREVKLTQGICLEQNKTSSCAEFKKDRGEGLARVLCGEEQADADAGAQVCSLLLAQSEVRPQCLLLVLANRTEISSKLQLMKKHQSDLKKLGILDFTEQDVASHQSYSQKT

Kd: 14.7 nM | koff: 0.000262 s⁻¹ | kon: 17800 M⁻¹ s⁻¹
B1: Chimeric QBEND/10 (antibody, V domains shown)
VH: QVQLEQSGPELVKPGASVKMSCKASGYTFTSYVIHWVKQKPGQGLEWLGYTNPYNDVTKYNEKFKFKATLTSDKQSTTAYMEFSSLTSEDSAVYYCARYGGLWLYAMDYWGQGTSVTVSS
VL: QLVLTQSSSASFSLGASAKLTCTLSSQHRTFTIEWYQQQPLKPPKYVMELRKDGSHSTGDGIPDRFSGSSSGADRYLSISNIQPEDEAIYICGVGNTIKEQFVYVFGGGTKVTVL
